Measured values: article PMC4755828 (Nature chemical biology, 2016)
Blank lines part the entries; values can stand above or below the compound they belong to. Square brackets hold non-standard residues; d marks the D form. Ends that are not written are not given here. Peptide text beside a SMILES is read from it. * marks the point of attachment. Benzoyl(4-tBu) = CC(C)(C)c1ccc(C(=O)*)cc1; Lys(Me3) = C[N+](C)(C)CCCC[C@H](N)C(=O)O; Lys(Et2) = CCN(CC)CCCC[C@H](N)C(=O)O

Legend:
PC3 cells [1] = experiment: Intracellular concentration by LC-MS/MS; type: in vitro ADME
[2] = Intracellular concentration by LC-MS/MS; type: in vitro ADME; conditions: human, PC3 cells
HEK293T cells = experiment: CellTiter-Glo cell viability assay; type: cell-based; conditions: up to 100 μM, 48 hours
PC3 cells [3] = experiment: CellTiter-Glo cell viability assay; type: cell-based; conditions: up to 100 μM, 48 hours
Mouse pharmacokinetics = type: in vivo; conditions: male swiss albino mice
CBX7 = conditions: cited from earlier work
[4] = target: CBX7 chromodomain (residues 8-62), C-terminal His-tag (UniProt O95931); experiment: ITC
[5] = target: CBX7 (AlphaScreen construct); experiment: AlphaScreen or HTRF
[6] = target: CBX6 chromodomain (residues 8-65) (UniProt O95503); experiment: ITC
[7] = target: CDYL2 chromodomain (residues 1-75) (UniProt Q8N8U2); experiment: ITC
[8] = target: CBX2 chromodomain (residues 9-66) (UniProt Q14781); experiment: ITC
[9] = target: CDY1 chromodomain (residues 1-101) (UniProt Q9Y6F8); experiment: ITC
[10] = target: CDYL1b chromodomain (residues 1-78) (UniProt Q9Y232); experiment: ITC
[11] = target: CBX8 chromodomain (residues 8-61), N-terminal His-tag (UniProt Q9HC52); experiment: ITC
[12] = target: CBX4 chromodomain (residues 8-65), N-terminal His-tag (UniProt O00257); experiment: ITC

Chain of CBX7 chromodomain (residues 8-62), C-terminal His-tag (O95931 8-62): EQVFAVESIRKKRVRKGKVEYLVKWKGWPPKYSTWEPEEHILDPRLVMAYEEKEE
Chain of CDY1 chromodomain (residues 1-101) (Q9Y6F8 1-101): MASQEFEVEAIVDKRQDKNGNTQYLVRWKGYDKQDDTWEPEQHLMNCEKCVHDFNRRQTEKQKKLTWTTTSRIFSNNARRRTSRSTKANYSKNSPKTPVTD
Chain of CDYL2 chromodomain (residues 1-75) (Q8N8U2 1-75): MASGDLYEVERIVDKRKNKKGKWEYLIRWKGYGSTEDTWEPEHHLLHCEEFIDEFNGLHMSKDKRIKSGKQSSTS
Chain of CBX6 chromodomain (residues 8-65) (O95503 8-65): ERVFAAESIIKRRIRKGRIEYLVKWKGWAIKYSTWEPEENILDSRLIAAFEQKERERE
Chain of CBX2 chromodomain (residues 9-66) (Q14781 9-66): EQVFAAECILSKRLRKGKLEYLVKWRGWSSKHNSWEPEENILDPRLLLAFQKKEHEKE
Chain of CBX8 chromodomain (residues 8-61), N-terminal His-tag (Q9HC52 8-61): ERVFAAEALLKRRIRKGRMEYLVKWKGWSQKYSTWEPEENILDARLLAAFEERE

Compound: CCN(CC)CCCC[C@H](NC(=O)[C@H](CC(C)C)NC(=O)[C@H](C)NC(=O)[C@H](Cc1ccccc1)NC(=O)c1ccc(C(C)(C)C)cc1)C(=O)N[C@@H](CO)C(=O)OC [UNC3866] ({Benzoyl(4-tBu)}-FAL[Lys(Et2)]S-OMe)
intracellular concentration (PC3 cells [1]; PC3 cells treated with 30 μM UNC3866 for 24 hrs, LC-MS/MS): 1.4 ± 0.3 µM
intracellular concentration as % of the extracellular concentration (PC3 cells [1]; PC3 cells, 30 μM UNC3866, 24 hours): ~5%
EC50 [2]: 340 nM
toxicity in HEK293T cells (HEK293T cells): no toxic effects
toxicity in PC3 cells (PC3 cells [3]): no toxic effects
clearance (in words) (Mouse pharmacokinetics): moderate

Compound: RGFAL[Lys(Me3)]STHG
affinity for CBX7 relative to the corresponding H3K27me3 peptide (CBX7): 22 fold
Kd (CBX7; read-out: CBX7 Kd): 5000 nM

Further lines, results first:

Kd [4]: 6700 nM
Compound: UNC3567 (peptide)

IC50 [5]: 66 nM
Kd [6]: 610 nM
Kd [7]: 850 nM
Kd [8]: 1800 nM
Kd [9]: 6300 nM
Kd [10]: 910 nM
Kd [11]: 1200 nM
Kd [12]: 94 nM
Kd [4]: 97 nM
Compound: UNC3866 (peptide)

Kd [4]: 220 nM
Compound: UNC4195 (peptide)
